Test system: high-mobility group box 1 (HMGB1)
Sequence (chain, as listed by the source): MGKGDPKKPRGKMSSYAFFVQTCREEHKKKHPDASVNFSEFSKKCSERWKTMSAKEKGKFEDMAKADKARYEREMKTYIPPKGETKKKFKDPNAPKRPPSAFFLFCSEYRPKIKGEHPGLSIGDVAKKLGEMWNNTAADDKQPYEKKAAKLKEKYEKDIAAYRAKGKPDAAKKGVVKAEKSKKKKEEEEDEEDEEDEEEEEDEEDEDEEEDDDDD

MAGE-A3/6-TRIM28 E3 ubiquitin ligase
in vitro ubiquitination reactions on protein microarrays containing >9000 recombinant proteins (screen for direct substrates of MAGE-A): As a significantly ubiquitinated target of the MAGE-TRIM28 complex, high-mobility group box 1 (HMGB1) emerged

Reference: patent US20190300967
